The results in this text go back to PMC3794620, “The Pyridoxal 5′-Phosphate (PLP)-Dependent Enzyme Serine Palmitoyltransferase (SPT): Effects of the Small Subunits and Insights from Bacterial Mimics of Human hLCB2a HSAN1 Mutations” (BioMed Research International, 2013).

In series [1] the test system is T1, CCCCCCCCCCCCCCCC(=O)SCCNC(=O)CCNC(=O)[C@H](O)C(C)(C)COP(=O)(O)OP(=O)(O)OC[C@H]1O[C@@H](n2cnc3c(N)ncnc32)[C@H](O)[C@@H]1OP(=O)(O)O.
T1 construct: full-length soluble enzyme, pET28a, C-terminal His6 tag, E. coli BL21(DE3), Ni-NTA and gel filtration, homodimer ~90 kDa, PLP holoform
The experiment in a line: DTNB assay of CoASH release, Michaelis-Menten fit. The class given is biochemical, Sphingomonas paucimobilis. To be noted: co-substrate L-serine. The source says: (§1) DTNB assay of CoASH release, Michaelis-Menten fit on Sp SPT

The test system of the next series is T2, N[C@@H](CO)C(=O)O.
T2 construct: full-length soluble enzyme, pET28a, C-terminal His6 tag, E. coli BL21(DE3), Ni-NTA and gel filtration, homodimer ~90 kDa, PLP holoform
The experiment in a line: DTNB assay of CoASH release, Michaelis-Menten fit. It is filed as biochemical, Sphingomonas paucimobilis. To be noted: co-substrate palmitoyl-CoA.
Excerpt: as §1

Series [2] deals with T3, Sp SPT (Sphingomonas paucimobilis, UniProt Q93UV0, G385F).
T3 construct: full-length soluble enzyme, pET28a, C-terminal His6 tag, E. coli BL21(DE3), Ni-NTA and gel filtration, homodimer ~90 kDa, PLP holoform
T3 sequence (Q93UV0 1-420 G385F): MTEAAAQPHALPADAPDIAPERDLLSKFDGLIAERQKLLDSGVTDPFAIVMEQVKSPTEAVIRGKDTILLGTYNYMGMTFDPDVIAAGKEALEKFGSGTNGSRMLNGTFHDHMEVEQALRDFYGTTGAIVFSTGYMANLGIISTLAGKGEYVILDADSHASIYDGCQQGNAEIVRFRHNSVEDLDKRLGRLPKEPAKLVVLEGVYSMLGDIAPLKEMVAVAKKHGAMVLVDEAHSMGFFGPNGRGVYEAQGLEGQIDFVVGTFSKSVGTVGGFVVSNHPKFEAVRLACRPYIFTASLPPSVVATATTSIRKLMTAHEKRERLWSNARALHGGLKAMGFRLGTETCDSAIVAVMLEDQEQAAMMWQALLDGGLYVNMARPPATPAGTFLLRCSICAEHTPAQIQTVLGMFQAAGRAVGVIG
Nature of the series: UV-visible titration, absorbance change at […] nm (external aldimine). The class given is binding. The conditions noted are these: read-out: Kd ^L-ser.

Series [3] addresses T4, Sp SPT (Sphingomonas paucimobilis, UniProt Q93UV0).
T4 construct: full-length soluble enzyme, pET28a, C-terminal His6 tag, E. coli BL21(DE3), Ni-NTA and gel filtration, homodimer ~90 kDa, PLP holoform
T4 sequence (Q93UV0 1-420): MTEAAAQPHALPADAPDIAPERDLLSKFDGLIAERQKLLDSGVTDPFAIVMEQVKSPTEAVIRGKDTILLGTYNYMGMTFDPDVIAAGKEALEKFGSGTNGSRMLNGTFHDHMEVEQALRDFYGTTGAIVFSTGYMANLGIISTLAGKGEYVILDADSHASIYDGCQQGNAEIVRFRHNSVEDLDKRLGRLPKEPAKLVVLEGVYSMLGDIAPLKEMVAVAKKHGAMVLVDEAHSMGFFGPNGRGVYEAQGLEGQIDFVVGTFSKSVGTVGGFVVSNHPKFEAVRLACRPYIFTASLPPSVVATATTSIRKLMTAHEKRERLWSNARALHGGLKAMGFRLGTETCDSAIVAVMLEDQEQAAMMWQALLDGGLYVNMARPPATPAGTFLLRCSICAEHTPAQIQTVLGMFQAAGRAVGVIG
The series is described as above. The class given is binding. To be noted: read-out: Kd ^L-ser.

For series [4], the target named is T5, Sp SPT (Sphingomonas paucimobilis, UniProt Q93UV0, V246M).
T5 construct: full-length soluble enzyme, pET28a, C-terminal His6 tag, E. coli BL21(DE3), Ni-NTA and gel filtration, homodimer ~90 kDa, PLP holoform
T5 sequence (Q93UV0 1-420 V246M): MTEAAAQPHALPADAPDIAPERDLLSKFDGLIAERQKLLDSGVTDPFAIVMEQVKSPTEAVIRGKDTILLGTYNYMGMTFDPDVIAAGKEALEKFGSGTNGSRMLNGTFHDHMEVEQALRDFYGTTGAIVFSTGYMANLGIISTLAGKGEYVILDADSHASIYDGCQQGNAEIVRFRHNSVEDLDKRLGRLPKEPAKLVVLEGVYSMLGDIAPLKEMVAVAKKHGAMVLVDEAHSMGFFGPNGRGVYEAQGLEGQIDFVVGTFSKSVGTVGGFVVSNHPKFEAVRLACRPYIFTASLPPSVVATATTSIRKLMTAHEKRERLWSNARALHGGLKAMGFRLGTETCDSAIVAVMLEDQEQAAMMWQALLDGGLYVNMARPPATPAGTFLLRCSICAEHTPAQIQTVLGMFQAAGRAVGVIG
The series is described as above. It is filed as binding. To be noted: read-out: Kd ^L-ser.

Series [5] addresses T4, Sp SPT. The experiment in a line: UV-visible spectroscopy, quinonoid peak at ~[…] nm. To be noted: 1.5 mM analogue, 50 mM L-serine, 40 μM enzyme, 25 °C, 15 min. It is filed as binding.
Series [6] deals with T4, Sp SPT. Nature of the series: UV-visible spectroscopy of internal aldimine. It is filed as binding. The conditions noted are these: covalent (imine to Lys265), 40 μM enzyme, 20 mM potassium phosphate pH 7.5, 150 mM NaCl, 25 °C.
Substrate in series [7]: CCCCCCCCCCCCCCCC(=O)SCCNC(=O)CCNC(=O)[C@H](O)C(C)(C)COP(=O)(O)OP(=O)(O)OC[C@H]1O[C@@H](n2cnc3c(N)ncnc32)[C@H](O)[C@@H]1OP(=O)(O)O
Nature of the series: DTNB assay of CoASH release, Michaelis-Menten fit. The class given is biochemical, Sphingomonas paucimobilis. To be noted: co-substrate L-serine.
Excerpt: as §1

Substrate in series [8]: N[C@@H](CO)C(=O)O
Nature of the series: DTNB assay of CoASH release, Michaelis-Menten fit. The conditions noted are these: co-substrate palmitoyl-CoA. It is filed as biochemical, Sphingomonas paucimobilis.
Excerpt: as §1

Series [9] concerns the molecule itself. Nature of the series: SEC; size exclusion chromatography of the purified enzymes; data not shown. On the technique in general: In gel filtration, larger molecules generally elute earlier.

Broadly, the Km is the concentration of substrate that gives half-maximal velocity. The term kcat/Km denotes the second-order rate constant that governs catalysis at low substrate concentration. “Sp SPT (Sphingomonas paucimobilis; G385F)”: in series [1], the Km was found to be 52.2 ± 8.0 µM, the kcat was 41 ± 2.0 × 10^-2 s^-1 and the kcat/Km came to 7850 M⁻¹ s⁻¹. In the series with N[C@@H](CO)C(=O)O, the Km was 3000 ± 500 µM, the kcat was 41 ± 2.0 × 10^-2 s^-1 and the kcat/Km was 136 M⁻¹ s⁻¹.
What is called Kd is the equilibrium constant for the complex coming apart. Consider `N[C@@H](CO)C(=O)O` [L-serine], for which the results for the Kd at Sp SPT [2], on Sp SPT [3] and at Sp SPT [4] were 4700 ± 100 µM, 1100 ± 100 µM and 1500 ± 100 µM, respectively.
For “Sp SPT (Sphingomonas paucimobilis; V246M)”, in series [1], the Km is 128.0 ± 10.0 µM, the kcat was 44 ± 1.2 × 10^-2 s^-1 and the kcat/Km came out at 3440 M⁻¹ s⁻¹. Moreover, in the series with N[C@@H](CO)C(=O)O, the Km turned out to be 2500 ± 200 µM, the kcat is 44 ± 1.2 × 10^-2 s^-1 and the kcat/Km came to 176 M⁻¹ s⁻¹.
In the case of `CCCCCCCCCCCCCCCC(=O)CSCCNC(=O)CCNC(=O)[C@H](O)C(C)(C)COP(=O)(O)OP(=O)(O)OC[C@H]1O[C@@H](n2cnc3c(N)ncnc32)[C@H](O)[C@@H]1OP(=O)(O)O` [S-(2-oxoheptadecyl)-CoA], at Sp SPT [5], the “UV-visible spectroscopy, quinonoid peak at ~495 nm” value was “Addition of the analogue to the PLP-L-serine external aldimine form of the wild-type SPT”.
Turning to `Cc1ncc(COP(=O)(O)O)c(C=O)c1O` [pyridoxal 5′-phosphate], the “UV-visible spectroscopy of internal aldimine” value at Sp SPT [6] is on record as “characteristic of the holo-, PLP-bound internal aldimine form of the enzyme”.

B1: Sp SPT (Sphingomonas paucimobilis) (protein)
chain: MTEAAAQPHALPADAPDIAPERDLLSKFDGLIAERQKLLDSGVTDPFAIVMEQVKSPTEAVIRGKDTILLGTYNYMGMTFDPDVIAAGKEALEKFGSGTNGSRMLNGTFHDHMEVEQALRDFYGTTGAIVFSTGYMANLGIISTLAGKGEYVILDADSHASIYDGCQQGNAEIVRFRHNSVEDLDKRLGRLPKEPAKLVVLEGVYSMLGDIAPLKEMVAVAKKHGAMVLVDEAHSMGFFGPNGRGVYEAQGLEGQIDFVVGTFSKSVGTVGGFVVSNHPKFEAVRLACRPYIFTASLPPSVVATATTSIRKLMTAHEKRERLWSNARALHGGLKAMGFRLGTETCDSAIVAVMLEDQEQAAMMWQALLDGGLYVNMARPPATPAGTFLLRCSICAEHTPAQIQTVLGMFQAAGRAVGVIG
notes: full-length soluble enzyme, pET28a, C-terminal His6 tag, E. coli BL21(DE3), Ni-NTA and gel filtration, homodimer ~90 kDa, PLP holoform
As for B1, in [7], the Km worked out at 35.6 ± 2.0 µM, the kcat is given as 114 ± 2.0 × 10^-2 s^-1 and the specificity constant (kcat/Km) came out at 32000 M⁻¹ s⁻¹. In addition, in [8], the Km is 1600 ± 90 µM, the kcat is on record as 114 ± 2.0 × 10^-2 s^-1 and the catalytic efficiency (kcat/Km) worked out at 712 M⁻¹ s⁻¹.

B2: Sphingomonas paucimobilis serine palmitoyltransferase G385F (mimic of hLCB2a I504F) (enzyme)
chain: MTEAAAQPHALPADAPDIAPERDLLSKFDGLIAERQKLLDSGVTDPFAIVMEQVKSPTEAVIRGKDTILLGTYNYMGMTFDPDVIAAGKEALEKFGSGTNGSRMLNGTFHDHMEVEQALRDFYGTTGAIVFSTGYMANLGIISTLAGKGEYVILDADSHASIYDGCQQGNAEIVRFRHNSVEDLDKRLGRLPKEPAKLVVLEGVYSMLGDIAPLKEMVAVAKKHGAMVLVDEAHSMGFFGPNGRGVYEAQGLEGQIDFVVGTFSKSVGTVGGFVVSNHPKFEAVRLACRPYIFTASLPPSVVATATTSIRKLMTAHEKRERLWSNARALHGGLKAMGFRLGTETCDSAIVAVMLEDQEQAAMMWQALLDGGLYVNMARPPATPAFTFLLRCSICAEHTPAQIQTVLGMFQAAGRAVGVIG
modifications: PLP cofactor covalently bound as an imine to Lys265
notes: serine palmitoyltransferase of Sphingomonas paucimobilis with G385F, made on pET 28a/Sp SPT; The PDB entries are of the wild-type parent; also called Sp SPT G385F; SPT G385F
What is called stoichiometry N is the number of molecules, sites or subunits per partner or assembly. B2: the “stoichiometry N” value in [9] was determined as 2.

B3: Sphingomonas paucimobilis serine palmitoyltransferase V246M (mimic of hLCB2a V359M) (enzyme)
chain: MTEAAAQPHALPADAPDIAPERDLLSKFDGLIAERQKLLDSGVTDPFAIVMEQVKSPTEAVIRGKDTILLGTYNYMGMTFDPDVIAAGKEALEKFGSGTNGSRMLNGTFHDHMEVEQALRDFYGTTGAIVFSTGYMANLGIISTLAGKGEYVILDADSHASIYDGCQQGNAEIVRFRHNSVEDLDKRLGRLPKEPAKLVVLEGVYSMLGDIAPLKEMVAVAKKHGAMVLVDEAHSMGFFGPNGRGMYEAQGLEGQIDFVVGTFSKSVGTVGGFVVSNHPKFEAVRLACRPYIFTASLPPSVVATATTSIRKLMTAHEKRERLWSNARALHGGLKAMGFRLGTETCDSAIVAVMLEDQEQAAMMWQALLDGGLYVNMARPPATPAGTFLLRCSICAEHTPAQIQTVLGMFQAAGRAVGVIG
modifications: PLP cofactor covalently bound as an imine to Lys265
notes: serine palmitoyltransferase of Sphingomonas paucimobilis with V246M, made on pET 28a/Sp SPT; The PDB entries are of the wild-type parent; also called Sp SPT V246M; SPT V246M
Turning to B3, the “stoichiometry N” value in series [9] is 2.
